Data reported in patent US20090203538A1 (INSTITUTE FOR ANTIBODIES, published 2009).

Legend:
[1] = biological target: T1, IgSF4 (immunoglobulin superfamily member 4) (Homo sapiens, UniProt Q9BY67 45-442); assay: antigen assigned by the filing's classifying and identification method; details for this clone not given
T1 construct: Native protein on cancer cell lines; also called BL2; ST17
T1 sequence: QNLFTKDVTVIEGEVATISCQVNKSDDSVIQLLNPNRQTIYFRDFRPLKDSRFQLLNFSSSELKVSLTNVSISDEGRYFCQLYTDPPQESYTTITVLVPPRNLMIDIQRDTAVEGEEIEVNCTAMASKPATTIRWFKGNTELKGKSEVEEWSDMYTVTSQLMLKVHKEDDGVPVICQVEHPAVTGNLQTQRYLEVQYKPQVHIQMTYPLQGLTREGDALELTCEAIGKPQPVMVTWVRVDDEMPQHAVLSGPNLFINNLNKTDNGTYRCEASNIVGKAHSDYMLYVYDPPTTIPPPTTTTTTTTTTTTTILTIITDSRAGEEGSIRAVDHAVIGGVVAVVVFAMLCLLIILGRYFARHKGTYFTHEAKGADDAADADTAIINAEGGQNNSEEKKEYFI

[2] = biological target: T2, HGFR (Hepatocyte growth factor receptor) (Homo sapiens (Human), UniProt P08581 25-1390); assay: as above
T2 construct: also called Met
T2 sequence (P08581 25-1390 L1272V limits assumed): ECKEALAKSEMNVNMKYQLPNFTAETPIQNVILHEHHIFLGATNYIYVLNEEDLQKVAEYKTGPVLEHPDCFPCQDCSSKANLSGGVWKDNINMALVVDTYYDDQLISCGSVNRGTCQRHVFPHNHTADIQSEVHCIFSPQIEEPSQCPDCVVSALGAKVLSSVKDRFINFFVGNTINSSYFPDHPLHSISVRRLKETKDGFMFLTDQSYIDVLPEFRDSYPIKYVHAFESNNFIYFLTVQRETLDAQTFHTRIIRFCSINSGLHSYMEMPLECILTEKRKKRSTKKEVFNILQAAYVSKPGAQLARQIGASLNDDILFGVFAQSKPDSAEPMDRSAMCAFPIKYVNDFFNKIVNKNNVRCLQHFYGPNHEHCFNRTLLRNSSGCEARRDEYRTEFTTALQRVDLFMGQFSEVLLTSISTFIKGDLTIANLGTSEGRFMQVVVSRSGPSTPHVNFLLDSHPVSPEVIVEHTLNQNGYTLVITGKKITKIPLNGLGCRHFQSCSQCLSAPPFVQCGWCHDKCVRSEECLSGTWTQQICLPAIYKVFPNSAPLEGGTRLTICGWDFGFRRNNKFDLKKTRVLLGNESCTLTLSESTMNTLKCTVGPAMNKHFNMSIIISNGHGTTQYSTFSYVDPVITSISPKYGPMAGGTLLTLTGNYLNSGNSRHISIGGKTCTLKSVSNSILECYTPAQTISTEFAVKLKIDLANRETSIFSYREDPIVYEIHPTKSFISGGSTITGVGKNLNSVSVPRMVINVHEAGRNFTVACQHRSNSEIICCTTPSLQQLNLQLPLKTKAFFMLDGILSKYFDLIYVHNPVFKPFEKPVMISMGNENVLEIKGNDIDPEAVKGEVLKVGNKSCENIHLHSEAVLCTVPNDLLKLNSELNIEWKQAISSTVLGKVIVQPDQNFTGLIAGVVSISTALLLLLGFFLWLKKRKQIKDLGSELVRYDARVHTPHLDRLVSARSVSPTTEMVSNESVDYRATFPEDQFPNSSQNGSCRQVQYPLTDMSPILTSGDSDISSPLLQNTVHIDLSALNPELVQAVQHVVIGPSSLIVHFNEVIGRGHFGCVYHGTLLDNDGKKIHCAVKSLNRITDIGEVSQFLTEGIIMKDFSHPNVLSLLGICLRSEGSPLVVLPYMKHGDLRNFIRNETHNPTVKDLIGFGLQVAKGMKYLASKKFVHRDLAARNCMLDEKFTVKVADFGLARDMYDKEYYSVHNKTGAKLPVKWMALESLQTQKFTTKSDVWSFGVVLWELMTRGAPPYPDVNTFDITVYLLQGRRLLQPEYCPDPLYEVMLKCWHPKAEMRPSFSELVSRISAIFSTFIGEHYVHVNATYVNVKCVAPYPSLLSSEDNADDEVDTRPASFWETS

[3] = biological target: CD44 (Homo sapiens (Human), UniProt P16070 24-742); assay: as above
Sequence of CD44 (P16070 24-742): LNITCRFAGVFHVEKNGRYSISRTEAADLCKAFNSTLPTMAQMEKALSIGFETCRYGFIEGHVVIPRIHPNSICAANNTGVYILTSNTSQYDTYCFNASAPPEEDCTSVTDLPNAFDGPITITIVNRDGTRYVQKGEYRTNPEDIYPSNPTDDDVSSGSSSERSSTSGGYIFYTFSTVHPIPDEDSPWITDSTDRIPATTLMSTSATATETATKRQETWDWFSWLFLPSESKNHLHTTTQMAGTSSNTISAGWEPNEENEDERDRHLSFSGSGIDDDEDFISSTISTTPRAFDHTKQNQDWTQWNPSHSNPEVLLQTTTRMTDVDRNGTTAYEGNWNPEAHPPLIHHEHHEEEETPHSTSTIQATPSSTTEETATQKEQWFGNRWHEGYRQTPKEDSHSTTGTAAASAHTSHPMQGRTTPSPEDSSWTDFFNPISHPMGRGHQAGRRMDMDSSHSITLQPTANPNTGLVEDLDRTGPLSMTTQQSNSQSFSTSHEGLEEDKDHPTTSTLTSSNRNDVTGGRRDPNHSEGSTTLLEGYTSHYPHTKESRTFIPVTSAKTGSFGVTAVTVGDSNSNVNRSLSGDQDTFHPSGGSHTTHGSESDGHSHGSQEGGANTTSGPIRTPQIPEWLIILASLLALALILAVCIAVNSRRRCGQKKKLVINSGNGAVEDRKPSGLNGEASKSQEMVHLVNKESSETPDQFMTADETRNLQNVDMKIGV

[4] = biological target: T3, ALCAM (Activated leukocyte cell adhesion molecule) (Homo sapiens (Human), UniProt Q13740 28-583); assay: immunoprecipitation from biotin-labelled cell lysate with pp type antibody, mass spectrometry
T3 construct: Native protein on cancer cell lines; also called CD166 antigen; CD166
T3 sequence: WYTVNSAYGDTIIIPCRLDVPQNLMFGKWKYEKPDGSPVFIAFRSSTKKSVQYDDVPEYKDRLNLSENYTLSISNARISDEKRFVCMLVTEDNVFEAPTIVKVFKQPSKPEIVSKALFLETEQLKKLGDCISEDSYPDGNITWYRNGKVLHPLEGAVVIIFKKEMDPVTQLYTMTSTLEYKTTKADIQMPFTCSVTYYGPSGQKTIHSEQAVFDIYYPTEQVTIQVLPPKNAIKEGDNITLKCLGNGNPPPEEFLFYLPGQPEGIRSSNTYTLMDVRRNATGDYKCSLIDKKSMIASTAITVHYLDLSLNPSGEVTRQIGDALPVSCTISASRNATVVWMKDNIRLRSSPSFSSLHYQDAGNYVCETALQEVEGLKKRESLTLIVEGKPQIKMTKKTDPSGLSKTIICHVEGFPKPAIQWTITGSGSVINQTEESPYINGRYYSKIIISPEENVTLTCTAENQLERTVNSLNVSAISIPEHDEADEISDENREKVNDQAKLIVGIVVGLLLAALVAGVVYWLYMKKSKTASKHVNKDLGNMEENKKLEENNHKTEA

[5] = biological target: T4, CD46 antigen (Homo sapiens (Human), UniProt P15529 35-392); assay: antigen assigned by the filing's classifying and identification method; details for this clone not given
T4 construct: Native protein on cancer cell lines; also called MCP (Membrane Co-factor Protein); gp45-70
T4 sequence: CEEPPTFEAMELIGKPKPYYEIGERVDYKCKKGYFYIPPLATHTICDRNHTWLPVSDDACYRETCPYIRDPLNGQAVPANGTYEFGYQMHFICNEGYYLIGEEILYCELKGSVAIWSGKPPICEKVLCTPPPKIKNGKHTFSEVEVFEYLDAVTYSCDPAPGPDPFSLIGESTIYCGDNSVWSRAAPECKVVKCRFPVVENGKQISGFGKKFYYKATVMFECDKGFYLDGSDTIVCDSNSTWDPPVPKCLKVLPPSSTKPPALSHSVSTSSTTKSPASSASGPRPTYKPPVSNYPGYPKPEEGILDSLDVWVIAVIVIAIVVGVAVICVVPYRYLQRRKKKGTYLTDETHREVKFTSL

[6] = biological target: T5, CD73 (Homo sapiens (Human), UniProt P21589 27-549, limits assumed); assay: as above
T5 construct: also called 5-prime-ribonucleotide phosphohydrolase
T5 sequence: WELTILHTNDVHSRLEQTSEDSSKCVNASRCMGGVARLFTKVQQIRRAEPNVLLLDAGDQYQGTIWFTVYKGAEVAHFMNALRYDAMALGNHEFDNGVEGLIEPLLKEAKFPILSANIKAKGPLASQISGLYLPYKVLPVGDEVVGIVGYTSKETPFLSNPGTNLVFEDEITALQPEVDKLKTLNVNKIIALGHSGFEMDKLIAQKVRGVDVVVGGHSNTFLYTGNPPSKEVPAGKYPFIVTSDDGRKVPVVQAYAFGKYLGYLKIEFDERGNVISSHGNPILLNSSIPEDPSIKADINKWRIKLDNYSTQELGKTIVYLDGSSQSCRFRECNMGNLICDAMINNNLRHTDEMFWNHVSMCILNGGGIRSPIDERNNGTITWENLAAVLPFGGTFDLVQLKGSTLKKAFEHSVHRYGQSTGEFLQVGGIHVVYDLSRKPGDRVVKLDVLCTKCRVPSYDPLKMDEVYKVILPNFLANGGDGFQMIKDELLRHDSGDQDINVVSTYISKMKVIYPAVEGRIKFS

[7] = biological target: T3, ALCAM (Activated leukocyte cell …); assay: flow cytometry histograms on various cell lines, antigen identified later
[8] = biological target: T6, EpCAM (Homo sapiens (Human), UniProt P16422 24-314); assay: antigen assigned by the filing's classifying and identification method; details for this clone not given
T6 chain: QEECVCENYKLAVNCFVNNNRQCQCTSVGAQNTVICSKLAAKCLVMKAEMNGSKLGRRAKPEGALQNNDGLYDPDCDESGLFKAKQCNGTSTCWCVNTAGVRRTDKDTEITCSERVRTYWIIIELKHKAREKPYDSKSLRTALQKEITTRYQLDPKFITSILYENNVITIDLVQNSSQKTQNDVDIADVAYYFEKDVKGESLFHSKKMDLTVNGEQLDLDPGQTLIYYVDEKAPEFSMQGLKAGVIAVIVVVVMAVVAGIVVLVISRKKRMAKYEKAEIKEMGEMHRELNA

[9] = biological target: T7, BCAM (basal cell adhesion molecule) (Lutheran blood group) (Homo sapiens (Human), UniProt P50895 32-628, limits assumed); assay: as above
T7 construct: also called CD239 antigen
T7 sequence: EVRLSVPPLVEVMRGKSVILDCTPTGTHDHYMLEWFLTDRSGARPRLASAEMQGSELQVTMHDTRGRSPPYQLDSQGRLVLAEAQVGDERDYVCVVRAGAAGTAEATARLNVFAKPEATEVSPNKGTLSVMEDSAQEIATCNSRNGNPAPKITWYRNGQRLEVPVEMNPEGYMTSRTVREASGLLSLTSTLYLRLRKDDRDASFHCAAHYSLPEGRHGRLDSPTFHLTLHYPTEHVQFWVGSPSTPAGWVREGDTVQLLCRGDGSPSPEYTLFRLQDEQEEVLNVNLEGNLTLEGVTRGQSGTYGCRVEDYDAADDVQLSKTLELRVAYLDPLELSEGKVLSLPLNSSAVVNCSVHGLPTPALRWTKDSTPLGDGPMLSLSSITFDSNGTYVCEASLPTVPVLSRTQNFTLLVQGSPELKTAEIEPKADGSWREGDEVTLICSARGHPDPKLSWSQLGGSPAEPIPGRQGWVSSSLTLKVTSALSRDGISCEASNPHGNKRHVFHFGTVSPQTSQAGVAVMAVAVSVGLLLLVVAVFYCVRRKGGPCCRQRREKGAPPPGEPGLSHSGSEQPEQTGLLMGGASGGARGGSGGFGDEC

B1: 076-048 antibody (antibody, V domains shown)
VH: QVQLVQSGAEVKKPGSSVKVSCRASGGTFSSYAISWVRQAPGQGLEWMGGIIPIFGTANYAQKFQGRVTITADKSTSTAYMELSSLRSEDTAVYYCAGDISRGSSWYGYYFDYWGQGTLVTVSR
VL: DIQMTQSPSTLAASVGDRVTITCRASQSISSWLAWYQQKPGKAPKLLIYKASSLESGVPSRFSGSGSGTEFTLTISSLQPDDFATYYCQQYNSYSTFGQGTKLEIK
notes: Clone of the scFv-CL-cp3 phage library
[1]
  binding result: binds

B2: 067-287 antibody (antibody, V domains shown)
VH: QVQLQQWGAGLLKPSETLSLTCTVHGGSFDDYYWTWIRQPPGGGLEWIGEMNSGRTYNYNPFLESRASIDVDTFKKQFSLALRSVTAADTAVYYCARGAYVNYYYIDVWGDGTTVTVSR
VL: QSALTQPASVSGSPGQTITISCTGTISDVGGYDFVSWYQHHPGKAPKLLIYDVNNRPSGVSHRFSGSKSGNTASLTISGLQAEDEATYYCSSYSNRHSLIVFGSGTQVVGLG
notes: as for B1
[2]
  binding result: binds

B3: 064-003 antibody (antibody, V domains shown)
VH: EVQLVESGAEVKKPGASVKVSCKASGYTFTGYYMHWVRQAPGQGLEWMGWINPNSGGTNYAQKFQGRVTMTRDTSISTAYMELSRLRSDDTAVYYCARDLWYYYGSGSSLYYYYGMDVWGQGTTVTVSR
VL: QSVLTQPPSVSGAPGQRVTISCTGSSSNIGAGYDVHWYQQLPGTAPKLLIYGNSNRPSGVPDRFSGSKSGTSASLAITGLQAEDEADYYCQSYDSSLSGVVFGGGTKLTVLG
notes: as for B1
[3]
  binding result: binds

B4: 041-118 antibody (antibody, V domains shown)
VH: EVQLVESGGGLVQPGGSLRLSCAASGFTFDDYAMHWVRQAPGKGLEWVSLISGDGGSTYYADSVKDRFTISRDNSKNSLYLQMNSLRAEDTAVYYCARGNYFDYWGQGTLVTVSR
VL: SYELTQPLSVSVALGQTARITCGGNNIGSKNVHWYQQKPGQAPVLVIYRDSNRPSGIPERFSGSNSGNTATLTISRAQAGDEADYYCQVWDSSVVFGGGTKLTVLG
notes: Clone of the scFv-CL-cp3 phage library; pp type (protein A fusion) used for immunoprecipitation
[4]
  binding result: binds

B5: 066-069 antibody (antibody, V domains shown)
VH: QVQLVQSEAEVKKPGESLKISCKGSGYSFTSYWIGWVRQMPGKGLEWMGIIYPGDSDTRYSPSFQGQVTISADKSISTAYLQWSSLKASDTAMYYCARTIGLGAFDIWGQGTTVTVSR
VL: SSELTQDPAVSVALGQTVRITCQGDSLRSYYASWYQQKPGQAPVLVIYGKNNRPSGIPDRFSGSSSGNTASLTITGAQAEDEADYYCNSRDSSGNHHYVFGTGTKVTVLG
notes: as for B1
[5]
  binding result: binds

B6: 067-213 antibody (antibody, V domains shown)
VH: EVQLVESGGGLVQPGRSLRLSCAASGFTFDDYAMHWVRQAPGKGLEWVSGISWNSGSIGYADSVKGRFTISRDNAKNSLYLQMNSLRAEDTALYYCVRSGSYNYYYYGMDVWGQGTTVTVSR
VL: not shown
notes: as for B1
[6]
  binding result: binds

B7: 040-107 antibody (antibody, V domains shown)
VH: EVQLVESGGGVVQPGGSLRLSCAASGFNFDVYGMNWVRQVPGKGLEWVSLINGDGGLRYYADSVKGRFTVSRDNSRNSLYLQMNSLRSEDTALYYCVKGNFQQWGQGTLVTVSR
VL: SYVLTQPPSVSVAPGKTARITCGGNNIGSKSVHWYQQKPGQAPVLVIYYDSDRPSGIPERFSGSNSGNTATLTISRVEAGDEADYYCQVWDSSSDHVVFGGGTKLTVLG
notes: as for B4
[7]
  binding result: binds

B8: 067-153 antibody (antibody, V domains shown)
VH: QVQLQESGGGLVQPGGSLRLSCTTSGFTFTSYAMSWVRQAPGKGLEWVSSISGSGGITYYADSVKGRFTISRDNSKNTLYLQMNSLRAEDTAVYYCAKDRVLVPASSSYFDYWGQGTLVTVSR
VL: SSELTQDPAVSVALGQTVRITCQGDSLRSYYASWYQQKPGQAPVLVIYGKNNRPSGIPDRFSGSSSGNTASLTITGAQAEDEADYYCNSRDSSGNHVVFGGGTKLTVLG
notes: as for B1
[8]
  binding result: binds

B9: 067-024 antibody (antibody, V domains shown)
VH: QVQLVQSGAEVKKPGASVKVSCKASGYTFTSYYMHWVRQAPGQGLEWMGIINPSGGSTSYAQKFQGRVTMTRDTSTSTVYMELSSLRSEDTAVYYCARAKRRGSAFDIWGQGTTVTVSR
VL: SSELTQDPAVSVALGQTVRITCQGDSLRSYYASWYQQKPGQAPVLVIYGKNNRPSGIPDRFSGSSSGNTASLTITGAQAEDEADYYCNSRDSSGNHVVFGGGTKLTVLG
notes: as for B1
[9]
  binding result: binds

B10: 035-234 antibody (antibody, V domains shown)
VH: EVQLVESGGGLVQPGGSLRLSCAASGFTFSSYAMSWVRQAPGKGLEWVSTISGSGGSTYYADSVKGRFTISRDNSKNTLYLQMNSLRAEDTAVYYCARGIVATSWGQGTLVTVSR
VL: SYELTQPPSVSVAPGQTARITCGGNKIGSKSVHWYQQKQGQAPVLVIYLDRDRPSGIPERFSGSNSGNTATLTITRVEAEDEADYYCHLWDSGSDQVFGGGTKLTVLG
notes: as for B4
[7]
  binding result: binds
